# Results published in PMC3967714 (Cell reports, 2013).
# Where no end group is shown, it is not given here.
# Assays:
# [1] = molecular target: T1, Dido3 PHD finger (Homo sapiens, UniProt Q9BTC0); type: binding; conditions: wild-type Dido3 PHD, tryptophan fluorescence and NMR, peptides aa 1–12 of H3
# T1 sequence (Q9BTC0 266-325): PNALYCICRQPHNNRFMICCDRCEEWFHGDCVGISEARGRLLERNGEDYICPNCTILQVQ
# [2] = molecular target: T1, Dido3 PHD finger; assay: 1H,15N HSQC NMR titration of 15N-labeled Dido3 PHD with histone peptides; type: binding; conditions: for chemical-shift changes in 1H,15N HSQC spectra: peptides aa 1–12 of H3 (H3K4me0: aa 1–19)
# [3] = molecular target: T2, Dido3 PHD E289A (UniProt Q9BTC0-4 266-325, E289A); assay: other fluorescence titration + NMR titration
# T2 sequence: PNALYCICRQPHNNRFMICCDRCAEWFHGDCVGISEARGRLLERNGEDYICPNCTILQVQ
# [4] = molecular target: T3, Dido3 PHD H277A (UniProt Q9BTC0-4 266-325, H277A); assay: other fluorescence titration + NMR titration
# T3 sequence: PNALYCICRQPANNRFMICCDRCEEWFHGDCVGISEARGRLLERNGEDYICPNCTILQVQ
# [5] = molecular target: T4, Dido3 PHD D286A (UniProt Q9BTC0-4 266-325, D286A); assay: other fluorescence titration + NMR titration
# T4 sequence: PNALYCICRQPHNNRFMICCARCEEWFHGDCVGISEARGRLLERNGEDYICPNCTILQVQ
molecule,measurement,setting,value
H3K4me2: H3K4me2 peptide (aa 1–12 of H3),weaker binding relative to H3K4me3,[1],6 fold
same,"chemical-shift changes in 1H,15N HSQC spectra",[2],very similar pattern of chemical-shift changes
H3K4me1: H3K4me1 peptide (aa 1–12 of H3),weaker binding relative to H3K4me3,[1],85 fold
same,exchange regime on the NMR timescale,[2]; peptide aa 1–12 of H3,intermediate exchange regime
same,"chemical-shift changes in 1H,15N HSQC spectra",[2],very similar pattern of chemical-shift changes
"ARTK(Me3)QTARKSTG (peptide, UniProt P68431 2-13, looked up) [H3K4me3 peptide (aa 1-12 of H3)]",fold decrease of binding against the wild type,[3],~4 fold
same,binding result,[4],binds
same,fold decrease of binding against the wild type,[5],~200 fold
